Data published in PMC5963859.

Test system: GST-MBNL1 (GST-MBNL1Δ101 in Methods)
Test: EMSA
Details: EMSA: 0.75 mM MgCl2, 50 mM Tris-HCl pH 7.0, 75 mM NaCl, 37.5 mM KCl, 5.25 mM DTT, 0.1 mg/ml BSA, 0.1 mg/ml bulk tRNA, RNasin 0.4 U/ul; 20 min on ice, gel at …

CUG 10x RNA
IC50: 100 nM
